Laboratory results taken from paper PMC6251713 (Immunity, 2018).
Where a chain is given by its changes, count along the chain named. Names may count otherwise.

T1: maltose binding protein (MBP)-tagged IFIT1 (human, UniProt P09914-1 1-478)
T1 sequence (looked up): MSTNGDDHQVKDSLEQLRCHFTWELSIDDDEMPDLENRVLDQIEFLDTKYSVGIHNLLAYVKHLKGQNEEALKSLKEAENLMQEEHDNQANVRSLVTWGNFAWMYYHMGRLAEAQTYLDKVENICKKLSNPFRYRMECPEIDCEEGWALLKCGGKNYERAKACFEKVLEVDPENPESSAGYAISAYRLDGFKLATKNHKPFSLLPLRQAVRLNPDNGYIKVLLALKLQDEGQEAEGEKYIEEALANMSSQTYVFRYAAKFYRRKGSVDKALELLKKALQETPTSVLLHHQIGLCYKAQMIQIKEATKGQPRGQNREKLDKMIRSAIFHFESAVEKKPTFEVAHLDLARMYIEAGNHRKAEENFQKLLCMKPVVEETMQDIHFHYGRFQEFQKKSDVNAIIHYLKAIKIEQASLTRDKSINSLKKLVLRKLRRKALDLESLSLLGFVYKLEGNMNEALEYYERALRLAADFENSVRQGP

B1: IFIT1 RNA binding mutant (R38A and K151A) (natural protein, human, UniProt P09914-1 1-478, looked up)
chain: T1 sequence (looked up) with R38A, K151A
B2: human IFIT1 (natural protein, UniProt P09914-1 1-478, looked up)
chain: T1 sequence (looked up)
B3: human IFIT3 (natural protein, UniProt O14879 1-490, looked up)
chain: MSEVTKNSLEKILPQLKCHFTWNLFKEDSVSRDLEDRVCNQIEFLNTEFKATMYNLLAYIKHLDGNNEAALECLRQAEELIQQEHADQAEIRSLVTWGNYAWVYYHLGRLSDAQIYVDKVKQTCKKFSNPYSIEYSELDCEEGWTQLKCGRNERAKVCFEKALEEKPNNPEFSSGLAIAMYHLDNHPEKQFSTDVLKQAIELSPDNQYVKVLLGLKLQKMNKEAEGEQFVEEALEKSPCQTDVLRSAAKFYRRKGDLDKAIELFQRVLESTPNNGYLYHQIGCCYKAKVRQMQNTGESEASGNKEMIEALKQYAMDYSNKALEKGLNPLNAYSDLAEFLETECYQTPFNKEVPDAEKQQSHQRYCNLQKYNGKSEDTAVQHGLEGLSISKKSTDKEEIKDQPQNVSENLLPQNAPNYWYLQGLIHKQNGDLLQAAKCYEKELGRLLRDAPSGIGSIFLSASELEDGSEEMGQGAVSSSPRELLSNSEQLN
B4: IFIT3 403–490 (IFIT3CTD) (domain or fragment, human, UniProt O14879 403-490, looked up)
chain: QNVSENLLPQNAPNYWYLQGLIHKQNGDLLQAAKCYEKELGRLLRDAPSGIGSIFLSASELEDGSEEMGQGAVSSSPRELLSNSEQLN
B5: chimeric construct Ifit3-IFIT3CTD (other, mouse | human, UniProt Q64345 1-403, looked up)
chain: MSEVNRESLEAILPQLKCHFTWNLFREGSMSSHMEDRVCNQVEHLNSEEKATMYDLLAYIKHLDGESKAALECLGQAEDLRKSEHNDQSEIRRLVTWGNYAWIYYHMGRLSEAQAYVDKVRQVCQKFANPYSMECPELECEEGWTRLKCGRNERAKMCFEKALEEKPKDPECSSGMAIAMFRLEEKPEKQFSVDALKQAMELNPQNQYLKVLLALKLLRMGEEAEGERLIKDALGKAPNQTDVLQKAAQFYKKKGNLDRAIELLGKALRSTVNNSPLYSLVMCRYREILEQLQNKGDADSSERRQRMAELRRLTMEFMQKTLQRRRSPLNSYSDLIDFPEVERCYQMVISKESPDVEEEDLYERYCNLQEYHRKSEDLAALECLLQFPRNERSIEKEEVKEQTQNVSENLLPQNAPNYWYLQGLIHKQNGDLLQAAKCYEKELGRLLRDAPSGIGSIFLSASELEDGSEEMGQGAVSSSPRELLSNSEQLN

Key:
[1] = target: B3; assay: ITC
[2] = target: B2; assay: ITC
[3] = target: T1, maltose binding protein (MBP)-tagged …; assay: pull-down

Binder	Kd [1] [nM]	dH [2] [kcal/mol]	stoichiometry N [2]	further results
B1	2.1 ± 6			
B2	1.5 ± 2			
B3		-13	0.93 ± 0.01	
B4		-17	0.97 ± 0.03	Kd [2]: 1.4 ± 3.1 nM
B5				binding result [3]: binds
